Experimental data taken from patent publication US20040072749A1.

Molecular target: cell-surface MOG-specific IgG1 of 8.18-C5 hybridoma cells
Assay: flow cytometry on 8.18-C5 hybridoma cells, biotinylated rMOG and FITC-streptavidin

recombinant, biotinylated MOG (rMOG) showed a percent of cells that bound rMOG greater than 90%.
